{"source": "patent US20140056903A1", "about": "(Regeneron, published 2014)", "key": {"[1]": {"molecular_target": "T1, human GFRα3 expressed with a C-terminal myc-myc-hexahistidine tag (human, UniProt O60609 32-374, biotinylated (sites not given) in ELISA format 2 and in the Octet cross-competition; not in SPR)", "T1 construct": "also called hGFRα3-mmh; hGFRα3-mmH", "T1 sequence (O60609 other isoform, or with tags, fused parts or gaps limits assumed)": "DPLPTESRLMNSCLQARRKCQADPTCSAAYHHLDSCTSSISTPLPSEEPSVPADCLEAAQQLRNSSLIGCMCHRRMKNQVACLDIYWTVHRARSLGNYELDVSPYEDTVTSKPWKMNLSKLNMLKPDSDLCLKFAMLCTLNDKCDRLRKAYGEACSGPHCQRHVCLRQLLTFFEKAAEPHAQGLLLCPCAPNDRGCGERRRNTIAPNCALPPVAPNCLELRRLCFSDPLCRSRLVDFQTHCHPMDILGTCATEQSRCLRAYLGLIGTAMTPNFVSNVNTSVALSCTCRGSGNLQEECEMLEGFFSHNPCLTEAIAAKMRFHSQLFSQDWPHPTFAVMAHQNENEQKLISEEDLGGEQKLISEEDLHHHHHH", "assay": "blocking ELISA 2, biotin-hGFRα3-mmH to coated hARTEMIN-mmH + hRET-10His", "how_it_was_run": "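Plates coated with 1.2 ug/ml hARTEMIN-mmH plus 6.9 ug/ml hRET-10His; 1 nM biotin-hGFRα3-mmH pre-equilibrated 1 h at RT with antibody (0 to ~100 nM) before 1 h binding. Bound receptor detected by streptavidin-HRP/TMB at 450 nm; IC50 as antibody concentration halving signal.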"}, "[2]": {"molecular_target": "T1, human GFRα3 expressed with a C-terminal …", "assay": "Octet RED384; 25 µg/mL first antibody on streptavidin-captured biotin-hGFRα3-mmH", "protocol": "(§1) A cross-competition assay was conducted to assess the ability of select antibodies to compete with one another for binding to human GFRα3 using an Octet RED384 biosensor (Fortebio Inc.). The entire experiment was performed at 25° C. with the flow rate of 1000 rpm in Octet HBST buffer (0.01 M HEPES pH7.4, 0.15M NaCl, 3 mM EDTA, 0.05% v/v Surfactant P20, 0.1 mg/mL BSA). To assess whether 2 antibodies were able to compete with one another for binding to their respective epitopes on biotinylated recombinant human GFRα3 expressed with a C-terminal myc-myc-hexahistidine tag (biotin-hGFRα3-mmH; SEQ ID:370), around ˜1.2 nm of biotin-hGFRα3-mmH was first captured onto streptavidin-coated Octet sensor tips (Fortebio Inc, #18-5019) by submerging the tips for 1 minute into a 10 μg/mL solution of biotin-hGFRα3-mmH. The antigen coated sensor tips were then placed into wells containing 25 μg/mL solution of a first anti-GFRα3 monoclonal antibody for 4 minutes to saturate the biotin-hGFRα3-mmH surface. The sensor tips were then subsequently dipped into wells containing 25 μ/mL solution of a second anti-GFRα3 monoclonal antibody. The sensor tips were washed in Octet HBST buffer in between every step of the experiment. The real-time binding response was monitored during the course of the experiment and the binding response at the end of every step was recorded as shown in FIG. 9. The response of mAb-2 binding to biotin-hGFRα3-mmH pre-complexed with the first antibody was compared and competitive/non-competitive behavior of different anti-GFRα3 monoclonal antibodies was determined."}, "[3]": {"molecular_target": "T1, human GFRα3 expressed with a C-terminal …", "assay": "Octet cross-competition; biotin-hGFRα3-mmH pre-saturated with first antibody H4H2291S", "protocol": "as §1"}, "[4]": {"molecular_target": "T1, human GFRα3 expressed with a C-terminal …", "assay": "Octet cross-competition; biotin-hGFRα3-mmH pre-saturated with first antibody H4H2295S", "protocol": "as §1"}, "[5]": {"molecular_target": "T1, human GFRα3 expressed with a C-terminal …", "assay": "Octet cross-competition; biotin-hGFRα3-mmH pre-saturated with first antibody H4H2342P", "protocol": "as §1"}, "[6]": {"molecular_target": "T1, human GFRα3 expressed with a C-terminal …", "assay": "Octet cross-competition; biotin-hGFRα3-mmH pre-saturated with first antibody H4H2350P", "protocol": "as §1"}, "[7]": {"molecular_target": "T1, human GFRα3 expressed with a C-terminal …", "assay": "Octet cross-competition; biotin-hGFRα3-mmH pre-saturated with first antibody H4H2355S", "protocol": "as §1"}, "[8]": {"molecular_target": "T1, human GFRα3 expressed with a C-terminal …", "assay": "Octet cross-competition; biotin-hGFRα3-mmH pre-saturated with first antibody H4H2236N3", "protocol": "as §1"}, "[9]": {"molecular_target": "T1, human GFRα3 expressed with a C-terminal …", "assay": "Octet cross-competition; biotin-hGFRα3-mmH pre-saturated with first antibody H4H2243N2", "protocol": "as §1"}}, "data": [{"binder": "H4H2350P (antibody, human IgG4, V domains shown, human IgG4 Fc (H4H)) VH: QVQLQESGPGLVKPSETLSLTCTVSGGSISTYYWSWFRQPPGKGLEWIGYIYYSGSTNHNPSLKSRVTISVDTSKNQFSLKLRSVTAADTAVYYCARVGPVGWGSWGNFDYWGQGTLVTVSS VL: DIQLTQSPSFLSASVGDRVTITCWASQGISSYLAWSQQKPGKAPKLLIYAASTLQSGVPSRFSGSGSGTEFTLTISSLQPEDFATYYCQQLNSYPWTFGQGTKVEIK", "values": [{"measurement": "% max blocking", "setting": "[1]", "value": 91, "unit": "%"}, {"measurement": "IC50", "setting": "[1]", "value": 1.29, "unit": "nM"}, {"measurement": "Amount of Antibody 1 bound (nm)", "setting": "[2]", "value": 3.31, "unit": "nm"}, {"measurement": "binding response of second antibody (nm)", "setting": "[3]", "value": 1.44, "unit": "nm"}, {"measurement": "binding response of second antibody (nm)", "setting": "[4]", "value": 1.35, "unit": "nm"}, {"measurement": "binding response of second antibody (nm)", "setting": "[5]", "value": 1.46, "unit": "nm"}, {"measurement": "binding response of second antibody (nm)", "setting": "[6]", "value": 0.25, "unit": "nm"}, {"measurement": "binding response of second antibody (nm)", "setting": "[7]", "value": 1.44, "unit": "nm"}, {"measurement": "binding response of second antibody (nm)", "setting": "[8]", "value": 1.35, "unit": "nm"}, {"measurement": "binding response of second antibody (nm)", "setting": "[9]", "value": 1.2, "unit": "nm"}]}]}
